The results in this text go back to US20160229915A1 (Chugai, published 2016).

Experiment [1] addresses T1, mouse FcgRIV extracellular domain, C-terminal His tag (mouse, UniProt A0A0B4J1G0 21-203).
T1 construct: also called mFcgRIV; mFcγRIV
T1 sequence: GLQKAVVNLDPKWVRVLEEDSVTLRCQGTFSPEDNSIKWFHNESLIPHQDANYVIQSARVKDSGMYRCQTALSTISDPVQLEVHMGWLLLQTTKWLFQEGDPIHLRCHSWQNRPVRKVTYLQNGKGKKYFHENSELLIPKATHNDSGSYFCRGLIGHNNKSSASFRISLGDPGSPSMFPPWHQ
The experiment can be described thus: SPR (Biacore), antibody captured on chip, mFcgR extracellular domain as analyte. Here is the method:
(§1) The two types of bispecific antibodies (MRAH-mIgG1mP3/MRAL-mk1//H54-mIgG1mN3/L28-mk1 and MRAH-mIgG1mP4/MRAL-mk1//H54-mIgG1mN4/L28-mk1) prepared by mouse IgG-type Fab arm exchange were tested for their binding to mouse FcgR and mouse FcRn according to Reference Example 4-3. Also, MRAH-mIgG1/MRAL-mk1 was prepared according to Reference Example 1 and assayed as a control.

Experiment [2] deals with T2, mouse FcgRI extracellular domain, C-terminal His tag (mouse, UniProt P26151 25-297).
T2 construct: extracellular domain; also called mFcgRI; mFcγRI; not shown: C-terminal His tag
T2 sequence (looked up): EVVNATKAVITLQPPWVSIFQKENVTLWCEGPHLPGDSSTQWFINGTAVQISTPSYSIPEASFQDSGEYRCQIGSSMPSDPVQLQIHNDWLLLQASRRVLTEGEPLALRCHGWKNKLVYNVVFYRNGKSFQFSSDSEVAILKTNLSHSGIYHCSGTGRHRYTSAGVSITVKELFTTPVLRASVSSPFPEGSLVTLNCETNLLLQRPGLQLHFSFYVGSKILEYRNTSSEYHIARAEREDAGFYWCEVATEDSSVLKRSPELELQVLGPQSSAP
The description is as above. Here is the method: as §1

Experiment [3] addresses T3, mouse FcRn (mouse, UniProt Q61559 22-297).
T3 construct: also called mFcRn
The experiment can be described thus: SPR (Biacore); relative to mIgG1 (the reference itself). Here is the method:
(§2) Next, the binding to mFcRn was evaluated according to Reference Example 4-4.
(§3) Kinetic analysis was conducted on mouse FcRn and each antibody using Biacore T100, Biacore T200, Biacore A100, and Biacore 4000 (GE Healthcare Japan Corp.). An appropriate amount of protein L (ACTIGEN) was immobilized on Sensor Chip CM4 (GE Healthcare Japan Corp.) by the amine coupling method. The antibody of interest was captured onto the chip. Next, a diluted FcRn solution or a running buffer (as a control solution) was injected thereto so that the mouse FcRn was allowed to interact with the antibody captured on the sensor chip. The running buffer used was 50 mmol/L sodium phosphate, 150 mmol/L NaCl, and 0.05% (w/v) Tween 20 (pH 6.0), and each buffer was also used for diluting FcRn. 10 mmol/L glycine-HCl (pH 1.5) was used to regenerate the chip. The assay was conducted at 25° C. for all samples. From the sensorgram obtained by the assay, an association rate constant ka (1/Ms) and a dissociation rate constant […] (1/s) were calculated as kinetic parameters. The KD (M) of each antibody for mouse FcRn was calculated on the basis of the parameters. Biacore Evaluation Software (GE Healthcare Japan Corp.) was used in the calculation of each parameter.

Experiment [4] deals with T3, mouse FcRn. The experiment can be described thus: SPR (Biacore), antibody captured by protein L, mouse FcRn as analyte, pH 6.0, 25 C. Here is the method: as §2, §3
The target of experiment [5] is T4, mouse FcgRIII extracellular domain, C-terminal His tag (mouse, UniProt P08508 31-215).
T4 construct: extracellular domain; also called mFcgRIII; mFcγRIII; not shown: C-terminal His tag
T4 sequence (looked up): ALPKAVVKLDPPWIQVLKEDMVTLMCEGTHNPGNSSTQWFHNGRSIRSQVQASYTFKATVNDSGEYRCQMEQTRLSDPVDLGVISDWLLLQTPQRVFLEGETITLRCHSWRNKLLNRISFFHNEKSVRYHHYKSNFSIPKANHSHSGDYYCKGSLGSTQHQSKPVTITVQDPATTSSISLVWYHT
The experiment can be described thus: SPR (Biacore); relative to mIgG1 (the reference itself). Here is the method: as §1

The target of experiment [6] is T5, mouse FcgRII extracellular domain, C-terminal His tag (mouse, UniProt P08101 30-210).
T5 construct: extracellular domain; also called mFcgRII; mFcγRII; not shown: C-terminal His tag
T5 sequence (looked up): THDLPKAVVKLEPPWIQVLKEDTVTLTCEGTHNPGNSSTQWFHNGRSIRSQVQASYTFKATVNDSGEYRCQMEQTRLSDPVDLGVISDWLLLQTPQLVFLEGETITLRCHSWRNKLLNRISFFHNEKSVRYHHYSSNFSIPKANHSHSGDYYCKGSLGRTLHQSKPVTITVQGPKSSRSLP
The description is as above. Here is the method:
as §1

The target in experiment [7] is T4, mouse FcgRIII extracellular domain, …. The experiment can be described thus: SPR (Biacore), antibody captured on chip, His-tagged mFcgR extracellular domain as analyte, 25 C. Here is the method:
as §1

The target of experiment [8] is T5, mouse FcgRII extracellular domain, …. The experiment is described as above. Here is the method: as §1

T3 sequence (Q61559 22-297): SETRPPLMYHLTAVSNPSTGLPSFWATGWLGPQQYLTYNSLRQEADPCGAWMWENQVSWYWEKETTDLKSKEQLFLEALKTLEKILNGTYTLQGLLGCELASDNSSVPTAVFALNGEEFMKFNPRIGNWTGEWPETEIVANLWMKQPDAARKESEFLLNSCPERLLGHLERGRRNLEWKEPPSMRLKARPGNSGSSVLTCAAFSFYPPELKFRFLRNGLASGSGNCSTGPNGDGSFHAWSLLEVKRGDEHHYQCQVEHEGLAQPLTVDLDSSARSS

B1: MRAH-mIgG1/MRAL-mk1 (antibody)
heavy: QVQLQESGPGLVRPSQTLSLTCTVSGYSITSDHAWSWVRQPPGRGLEWIGYISYSGITTYNPSLKSRVTMLRDTSKNQFSLRLSSVTAADTAVYYCARSLARTTAMDYWGQGSLVTVSSAKTTPPSVYPLAPGSAAQTNSMVTLGCLVKGYFPEPVTVTWNSGSLSSGVHTFPAVLQSDLYTLSSSVTVPSSTWPSETVTCNVAHPASSTKVDKKIVPRDCGCKPCICTVPEVSSVFIFPPKPKDVLTITLTPKVTCVVVDISKDDPEVQFSWFVDDVEVHTAQTQPREEQFNSTFRSVSELPIMHQDWLNGKEFKCRVNSAAFPAPIEKTISKTKGRPKAPQVYTIPPPKEQMAKDKVSLTCMITDFFPEDITVEWQWNGQPAENYKNTQPIMDTDGSYFVYSKLNVQKSNWEAGNTFTCSVLHEGLHNHHTEKSLSHSPGK
light: DIQMTQSPSSLSASVGDRVTITCRASQDISSYLNWYQQKPGKAPKLLIYYTSRLHSGVPSRFSGSGSGTDFTFTISSLQPEDIATYYCQQGNTLPYTFGQGTKVEIKRADAAPTVSIFPPSSEQLTSGGASVVCFLNNFYPKDINVKWKIDGSERQNGVLNSWTDQDSKDSTYSMSSTLTLTKDEYERHNSYTCEATHKTSTSPIVKSFNRNEC
notes: Control with mouse IgG1 H chain constant region and mouse kappa constant region; also called naturally occurring mIgG1
With B1, the binding result in experiment [1] and in experiment [2] was “no binding” each time. In experiment [3], the “fold KD” value was determined as 1 fold. Also, the Kd is 2500 nM in experiment [4], 790 nM in experiment [7] and 820 nM in experiment [8]. In addition, the “KD fold mFcgRIII” value in experiment [5] is 1 fold. In addition, the “KD fold mFcgRII” value in experiment [6] was found to be 1 fold.
